The record followed here is patent US20250369044.

For data set [1], the system named is mNG-beta_hairpin (mNG with a hairpin blocking domain and ssrA tag).
The subject of data set [2] is MBP-C chemically tagged on its C-terminal cysteine with the maleimide Peptide-2 tag.
Data set [3] concerns {MBP}-{MBP-1}, genetic fusion protein of two MBP proteins (805 amino acids, 88 kDa).
The test system of data set [4] is C-MBP dimer (MBP variant with a cysteine on the third residue, disulfide-linked N-terminus to N-terminus homodimer).
The test system of data set [5] is mNG-alpha_helix (mNG with an alpha-helical blocking domain and ssrA tag).
Data set [6] has as its system MBP-1 (His-tagged Maltose Binding Protein with C-terminal leader: polyglycine stall, polyarginine capture, ssrA recognition motif).
In data set [7] the test system is mNG-HTH (mNG with a helix-turn-helix blocking domain and ssrA tag).

On to “E. coli ClpX, N-terminal truncated variant (residues 61-423)”, for which the “fluorescence over time at 37° C. after adding ClpX and ATP” value (shortened to “fluorescence over time”) in data set [1] is reported as “no decrease in fluorescence”. For the same substance, the “ClpX controlled translocation of tagged MBP (ionic current)” value in data set [2] was “ClpX controlled MBP translocations (marked by arrows) are evident from the characteristic pattern of changing ionic current signals”. The “full length single-molecule reads with ClpX and ATP in cis” value in data set [3] is “full length reads of the protein were reliably obtained”. Further, the “nanopore read of the disulfide-linked dimer with ClpX and ATP in cis” value in data set [4] is listed as “After reading the first monomer of C-MBP, the unfoldase was able to pass through the disulfide bond, after which it reads the second C-MBP monomer in the N- to C-terminus direction”. Besides, in data set [5], the “fluorescence over time” value is listed as “no decrease in fluorescence”. In data set [6], the “ClpX controlled translocation with 1M KGlu in cis and 1 M KCl in trans” value is “ClpX controlled MBP-1 translocations were obtained from CytK 4D2E nanopores systems with 1M KGlu in the cis and 1 M KCl in trans”; the “ClpX-controlled translocation of MBP-1 through the nanopore (ionic current)” value was “clear and consistent capture and subsequent ClpX-controlled translocation of MBP-1 was observed”; the “rate of ClpX translocating along the polypeptide” value is recorded as “about 12-15 aa/second in these conditions”; the “trans-to-cis ClpX controlled translocation (ionic current)” value is “characteristic ClpX controlled MBP-1 translocation events occurred trans-to-cis”. The “translocation with 2.5 mM Gamma-S-ATP in place of ATP” value in data set [6] is on record as “long blockades that never progressed to the changing current levels phase associated with ClpX translocase controlled movement of polypeptide that was observed under regular ATP conditions”. For the same substance, in data set [7], the “fluorescence over time” value is given as “no decrease in fluorescence”.
